These results are taken from patent publication US20060051842A1 (AMRAD OPERATIONS, published 2006).

Assay [1] addresses T1, Nr1 (murine IL-11 receptor α-chain) expressed in Ba/F3 cells (murine, UniProt Q64385 24-432).
T1 construct: also called Ba/F3 cells expressing Nr1; Ba/F3 Nr1
T1 sequence: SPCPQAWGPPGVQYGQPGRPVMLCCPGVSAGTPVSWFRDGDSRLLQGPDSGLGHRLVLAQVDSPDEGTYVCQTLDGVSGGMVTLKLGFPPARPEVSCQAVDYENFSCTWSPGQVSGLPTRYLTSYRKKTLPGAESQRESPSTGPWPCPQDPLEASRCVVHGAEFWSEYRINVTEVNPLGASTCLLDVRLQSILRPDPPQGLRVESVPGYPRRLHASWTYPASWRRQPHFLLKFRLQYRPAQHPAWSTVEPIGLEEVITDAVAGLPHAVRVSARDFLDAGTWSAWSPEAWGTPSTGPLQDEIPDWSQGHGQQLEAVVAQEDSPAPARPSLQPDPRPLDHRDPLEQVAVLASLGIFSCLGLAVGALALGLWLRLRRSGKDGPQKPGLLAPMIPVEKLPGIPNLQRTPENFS
In words: Scatchard analysis of 125I-IL-11 saturation binding to Ba/F3 cells expressing Nr1. The source says:
FIGS. 4A-4D are graphical representations of scatchard analyses of saturation isotherms of IL-11 binding to various cell lines; (4A) parental Ba/F3 cells (●), Ba/F3 cells expressing Nr1 (◯), Ba/F3 cells expressing Nr1 and the LIF receptor (▪), (4B) Ba/F3 cells expressing the LIF receptor and gp130 (▪), Ba/F3 cells expressing Nr1 and gp130 (●), Ba/F3 cells expressing the Nr1, LIF receptor and gp130 (◯), (4C) parental M1 cells (▪), M1 cells expressing Nr1 (◯), and (4D) 3T3-L1 cells (●) were incubated with various concentrations of labelled IL-11 in the presence of absence of a 10-100-fold excess of unlabelled IL-11. After 18 hours incubation on ice, bound and free IL-11 were separated by centrifugation through foetal calf serum. Bound and free ¹²⁵I-IL-11 was quantitated in a γ-counter and the data was depicted as a Scatchard transformation. In each case data were normalised for cell number and shown as binding to 10⁶ cells.

For assay [2], the target named is T2, LIF receptor and gp130 expressed by parental M1 cells (mouse; murine, UniProt P42703 44-1092; Q00560 23-917).
T2 construct: whole, on cells; Untransfected cells
As to the kind of experiment: binding of 125I-OSM to parental M1 cells.

Assay [3] concerns the target T1, Nr1 (murine IL-11 receptor α-chain) …. In words: binding of 125I-OSM to transfected Ba/F3 cells.
In assay [4] the target is T3, Nr1, gp130 and the LIF receptor co-expressed in Ba/F3 cells (murine; mouse; human, UniProt Q00560 23-917; P42702 45-1097).
T3 construct: whole, on cells; also called Ba/F3 Nr1/gp130/LIF receptor
As to the kind of experiment: competition with 125I-IL-11 on Ba/F3 cells expressing Nr1, gp130 and the LIF receptor. On the procedure: (§1) After 18 hours incubation on ice, bound and free IL-11 were separated by centrifugation through foetal calf serum. Bound and free ¹²⁵I-IL-11 were quantitated in a γ-counter and the amount of binding was expressed as a percentage of that observed in the absence of competitor.

Assay [5] addresses T4, Nr1 and gp130 co-expressed in Ba/F3 cells (murine; mouse, UniProt Q00560 23-917).
T4 construct: whole, on cells; also called Ba/F3 Nr1/gp130; Ba/F3 cells expressing the murine IL-11rα and murine gp130
T4 sequence 1: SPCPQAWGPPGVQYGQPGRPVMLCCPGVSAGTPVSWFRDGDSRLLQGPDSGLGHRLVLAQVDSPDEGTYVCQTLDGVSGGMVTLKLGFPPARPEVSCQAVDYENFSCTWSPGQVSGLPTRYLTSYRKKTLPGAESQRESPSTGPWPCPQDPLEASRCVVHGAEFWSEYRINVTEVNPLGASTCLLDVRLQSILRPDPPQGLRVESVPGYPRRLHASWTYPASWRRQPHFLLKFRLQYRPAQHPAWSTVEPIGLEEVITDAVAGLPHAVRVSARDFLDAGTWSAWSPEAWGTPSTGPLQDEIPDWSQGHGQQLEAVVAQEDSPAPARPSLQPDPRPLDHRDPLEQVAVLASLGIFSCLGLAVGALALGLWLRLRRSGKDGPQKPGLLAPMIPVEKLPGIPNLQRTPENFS
T4 sequence 2: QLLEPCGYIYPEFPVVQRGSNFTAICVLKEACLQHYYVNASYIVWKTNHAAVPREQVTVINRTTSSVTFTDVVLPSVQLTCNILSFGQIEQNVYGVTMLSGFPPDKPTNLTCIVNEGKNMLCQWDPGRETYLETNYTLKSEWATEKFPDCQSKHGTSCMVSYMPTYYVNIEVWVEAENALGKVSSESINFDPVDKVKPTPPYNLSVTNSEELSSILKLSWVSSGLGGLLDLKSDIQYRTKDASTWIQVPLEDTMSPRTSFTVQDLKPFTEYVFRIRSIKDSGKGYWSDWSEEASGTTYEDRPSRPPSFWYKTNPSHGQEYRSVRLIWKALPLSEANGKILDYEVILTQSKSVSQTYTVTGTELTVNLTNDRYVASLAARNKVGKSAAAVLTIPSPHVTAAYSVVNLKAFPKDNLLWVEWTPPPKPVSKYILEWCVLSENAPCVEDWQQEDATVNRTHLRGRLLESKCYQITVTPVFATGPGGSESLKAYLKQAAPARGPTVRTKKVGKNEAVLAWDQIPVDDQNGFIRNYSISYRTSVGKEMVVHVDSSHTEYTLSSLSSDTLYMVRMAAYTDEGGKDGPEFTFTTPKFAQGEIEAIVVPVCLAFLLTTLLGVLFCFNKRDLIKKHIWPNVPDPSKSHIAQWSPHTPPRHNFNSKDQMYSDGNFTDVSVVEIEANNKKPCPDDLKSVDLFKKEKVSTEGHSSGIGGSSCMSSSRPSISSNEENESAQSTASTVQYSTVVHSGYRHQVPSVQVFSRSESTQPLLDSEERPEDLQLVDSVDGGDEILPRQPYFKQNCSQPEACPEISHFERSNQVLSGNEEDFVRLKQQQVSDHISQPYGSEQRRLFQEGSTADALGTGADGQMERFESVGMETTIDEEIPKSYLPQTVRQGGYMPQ
As to the kind of experiment: competition with 125I-IL-11 on Ba/F3 cells expressing Nr1 and gp130; competitor of labelled IL-11. The method, then:
as §1

For assay [6], the target named is T2, LIF receptor and gp130 expressed by …. As to the kind of experiment: binding of 125I-labelled human IL-11 to cells.
Assay [7] has the same target. As to the kind of experiment: binding of 125I-LIF to parental M1 cells.
For assay [8], the target named is T1, Nr1 (murine IL-11 receptor α-chain) …. In words: binding of 125I-LIF to transfected Ba/F3 cells.

T2 sequence (P42703 44-1092, one chain of several): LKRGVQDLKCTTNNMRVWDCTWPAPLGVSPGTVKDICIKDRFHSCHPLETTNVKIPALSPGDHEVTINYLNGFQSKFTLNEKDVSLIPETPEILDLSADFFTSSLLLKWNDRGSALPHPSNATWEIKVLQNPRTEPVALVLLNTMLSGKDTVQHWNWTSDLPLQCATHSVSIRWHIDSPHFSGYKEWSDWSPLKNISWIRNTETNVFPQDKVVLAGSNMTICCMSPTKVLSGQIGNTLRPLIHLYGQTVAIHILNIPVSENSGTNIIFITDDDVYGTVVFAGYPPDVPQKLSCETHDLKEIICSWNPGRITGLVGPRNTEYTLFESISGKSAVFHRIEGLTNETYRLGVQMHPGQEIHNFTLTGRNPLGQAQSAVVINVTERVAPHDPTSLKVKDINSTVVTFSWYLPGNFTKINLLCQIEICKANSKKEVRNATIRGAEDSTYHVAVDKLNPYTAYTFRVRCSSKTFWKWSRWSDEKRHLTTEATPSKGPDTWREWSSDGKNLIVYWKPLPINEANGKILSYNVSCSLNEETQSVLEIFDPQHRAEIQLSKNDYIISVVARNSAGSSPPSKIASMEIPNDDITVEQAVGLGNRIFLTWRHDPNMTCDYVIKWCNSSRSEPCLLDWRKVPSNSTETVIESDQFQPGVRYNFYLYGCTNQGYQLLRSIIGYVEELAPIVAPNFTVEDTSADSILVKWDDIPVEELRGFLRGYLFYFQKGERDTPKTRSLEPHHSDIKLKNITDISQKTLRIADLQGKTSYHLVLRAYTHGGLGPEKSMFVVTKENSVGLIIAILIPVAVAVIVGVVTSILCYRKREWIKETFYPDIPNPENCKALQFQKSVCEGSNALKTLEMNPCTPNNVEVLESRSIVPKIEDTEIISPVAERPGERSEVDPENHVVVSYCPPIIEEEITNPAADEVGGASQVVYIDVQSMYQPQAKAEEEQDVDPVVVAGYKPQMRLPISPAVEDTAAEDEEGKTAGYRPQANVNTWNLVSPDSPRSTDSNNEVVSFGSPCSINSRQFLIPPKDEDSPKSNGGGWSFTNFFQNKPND
T3 sequence (P42702 45-1097, one chain of several): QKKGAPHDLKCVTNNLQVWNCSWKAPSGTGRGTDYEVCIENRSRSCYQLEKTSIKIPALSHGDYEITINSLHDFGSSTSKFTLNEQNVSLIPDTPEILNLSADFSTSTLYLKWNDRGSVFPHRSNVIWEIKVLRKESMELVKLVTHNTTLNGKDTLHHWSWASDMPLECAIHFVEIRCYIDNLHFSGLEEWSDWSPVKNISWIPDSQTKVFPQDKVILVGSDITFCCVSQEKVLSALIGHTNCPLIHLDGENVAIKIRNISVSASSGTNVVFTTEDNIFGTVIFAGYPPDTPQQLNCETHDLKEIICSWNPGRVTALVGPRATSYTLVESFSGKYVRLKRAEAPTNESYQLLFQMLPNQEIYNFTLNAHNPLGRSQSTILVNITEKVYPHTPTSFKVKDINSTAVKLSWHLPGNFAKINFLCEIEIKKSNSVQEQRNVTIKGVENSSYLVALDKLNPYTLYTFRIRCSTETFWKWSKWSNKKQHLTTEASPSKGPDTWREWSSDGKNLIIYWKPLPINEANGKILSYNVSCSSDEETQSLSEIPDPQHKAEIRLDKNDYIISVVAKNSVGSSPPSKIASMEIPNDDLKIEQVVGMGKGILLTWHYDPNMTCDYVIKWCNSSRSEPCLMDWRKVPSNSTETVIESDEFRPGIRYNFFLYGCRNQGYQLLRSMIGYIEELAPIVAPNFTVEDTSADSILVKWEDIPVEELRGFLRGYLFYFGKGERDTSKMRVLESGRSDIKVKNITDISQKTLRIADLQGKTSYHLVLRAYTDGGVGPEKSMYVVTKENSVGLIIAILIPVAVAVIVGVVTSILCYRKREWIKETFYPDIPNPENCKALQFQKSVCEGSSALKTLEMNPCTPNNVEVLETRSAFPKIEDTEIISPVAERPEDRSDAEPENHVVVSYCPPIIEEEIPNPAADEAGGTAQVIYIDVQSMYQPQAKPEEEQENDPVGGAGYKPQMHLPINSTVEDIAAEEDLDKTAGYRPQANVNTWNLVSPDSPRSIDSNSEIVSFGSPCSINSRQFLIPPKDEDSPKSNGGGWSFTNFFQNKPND

B1: IL-11 (purchased from PeproTech; used in Examples 7, 8, 12 and 13) (ligand)
chain: PGPPPGPPRVSPDPRAELDSTVLLTRSLLADTRQLAAQLRDKFPADGDHNLDSLPTLAMSAGALGALQLPGVLTRLRADLLSYLRHVQWLRRAGGSSLKTLEPELGTLQARLDRLLRRLQLLMSRLALPQPPPDPPAPPLAPPSSAWGGIRAAHAILGGLHLTLDWAVRGLLLLKTRL
modifications: The tracer form (125I-IL-11) was radio-iodinated with monoiodinated Bolton-Hunter reagent on amino groups. The positions are not stated and the letters are unchanged.
notes: Species ambiguous: 'Murine' may apply to IL-3 only; also called labelled IL-11
B1: in assay [1], the Kd – broadly, a measure of binding affinity in units of concentration – is approximately 0.01 nM.

B2: human OSM (produced using the pGEX system) (ligand, UniProt P13725 26-221, looked up)
chain: AAIGSCSKEYRVLLGQLQKQTDLMQDTSRLLDPYIRIQGLDVPKLREHCRERPGAFPSEETLRGLGRRGFLQTLNATLGCVLHRLADLEQRLPKAQDLERSGLNIEDLEKLQMARPNILGLRNNIYCMAQLLDNSDTAEPTKAGRGASQPPTPTPASDAFQRKLEGCRFLHGYHRFMHSVGRVFSKWGESPNRSRR
modifications: 125I-labelled where used as labelled ligand
B2: the binding result is recorded as “binds” in assay [2], “no binding” in assay [3], “binds” in assay [4] and “binds” in assay [5].

B3: N-terminal flag human IL-11 (expressed in COS-M6 cells, used in ligand binding studies) (ligand)
chain: DYKDDDDKPGPPPGPPRVSPDPRAELDSTVLLTRSLLADTRQLAAQLRDKFPADGDHNLDSLPTLAMSAGALGALQLPGVLTRLRADLLSYLRHVQWLRRAGGSSLKTLEPELGTLQARLDRLLRRLQLLMSRLALPQPPPDPPAPPLAPPSSAWGGIRAAHAILGGLHLTLDWAVRGLLLLKTRL
modifications: radio-iodinated (125I) with Bolton-Hunter reagent
notes: mature; also called radio-labelled human IL-11
For the molecule B3, the binding result in assay [6] was “no binding”.

B4: human LIF (produced using the pGEX system) (ligand)
chain: not shown
modifications: 125I-labelled where used as labelled ligand
Consider B4, for which the figures for the binding result in assay [7], in assay [8] and in assay [4] were “binds”, “no binding” and “binds”, respectively.
